System: fibrinolysis system of the blood
Assay: complex permittivity at 10 MHz of blood samples with fibrinolysis system promotor (tPA) and inhibitor (aprotinin)
Conditions: blood sample of tPA=8 and aprotinin=0, FIG. 9
Protocol: In addition, for example, in the case where the fibrinolysis system is evaluated, examples of coagulation factors to be evaluated include plasminogen and plasmin. In that case, as a drug to be added to the blood sample, an activator or inhibitor of plasminogen or plasmin is usable. FIG. 9 is a diagram showing time-dependent changes in the real part (∈′) of the complex permittivity at 10 MHz of blood samples having different fibrinolysis system promotor (tPA) and fibrinolysis system inhibitor (aprotinin) concentrations.
For the evaluation of the fibrinolysis-system blood, for example, a value obtained by dividing the amplitude after 30 minutes from the time B shown in FIGS. 2A-2B by the amplitude at the time B (LI30: the source of clot firmness after a predetermined period of time from the maximum firmness accompanying fibrinolysis) can be used as an evaluation parameter.

B1: tPA: fibrinolysis system promotor (protein, UniProt P00750 36-562, looked up)
Tissue-type plasminogen …: SYQVICRDEKTQMIYQQHQSWLRPVLRSNRVEYCWCNSGRAQCHSVPVKSCSEPRCFNGGTCQQALYFSDFVCQCPEGFAGKCCEIDTRATCYEDQGISYRGTWSTAESGAECTNWNSSALAQKPYSGRRPDAIRLGLGNHNYCRNPDRDSKPWCYVFKAGKYSSEFCSTPACSEGNSDCYFGNGSAYRGTHSLTESGASCLPWNSMILIGKVYTAQNPSAQALGLGKHNYCRNPDGDAKPWCHVLKNRRLTWEYCDVPSCSTCGLRQYSQPQFRIKGGLFADIASHPWQAAIFAKHRRSPGERFLCGGILISSCWILSAAHCFQERFPPHHLTVILGRTYRVVPGEEEQKFEVEKYIVHKEFDDDTYDNDIALLQLKSDSSRCAQESSVVRTVCLPPADLQLPDWTECELSGYGKHEALSPFYSERLKEAHVRLYPSSRCTSQHLLNRTVTDNMLCAGDTRSGGPQANLHDACQGDSGGPLVCLNDGRMTLVGIISWGLGCGQKDVPGVYTKVTNYLDWIRDNMRP
characteristics of time-dependent change of ∈′ at 10 MHz: exhibits similar characteristics to the blood of a patient with the fibrinolysis system promoted
